Experimental data: patent US5882644A, “Monoclonal antibodies specific for the platelet derived growth factor β receptor and methods of use thereof” (Protein Design Labs, Inc., priority 1996, dated 1999)
Entries after “also recorded” stand apart in the source; their conditions may differ.

Experiments:
[1] = tested on: PDGF-R β expressed on the cell membrane; assay: Flow cytometry binding to CHO PDGF-R β transfectant cells; parameters: species or system human; conditions: 0.1-1 μg/ml antibody; CHO PDGF-R β transfectants vs untransfected CHO
Protocol: The cells were washed once in cold PBS and resuspended in 50 μl of PBS containing 10 μg/ml FITC-conjugated goat anti-mouse IgG and incubated for 30 min. After another wash, the cells were fixed by resuspension in 0.25 ml of paraformaldehyde in PBS, and analyzed for fluorescence by flow cytometry on a FACScan (Becton Dickinson).

PDGF-R β = assay: Competition with 125I-labeled murine antibody tracer on Sp2/0 PDGF-R β transfectant cells; format: binding, human; conditions: calculated from competitive binding data; Sp2/0 PDGF-R β transfectants
Protocol: To assess the ability of HuM4TS.22 to compete with muM4TS.22 for receptor binding, increasing concentrations of the two antibodies were respectively incubated on ice for one hour with Sp2/0 PDGF-R β transfectant cells and a fixed amount of tracer ^125 I-labeled muAb. The sample tubes were processed as in the blocking experiment just described.
To assess the ability of HuM4TS.11 to compete with the muAb for receptor binding, increasing concentrations of the two antibodies were respectively incubated on ice for one hour with Sp2/0 PDGF-R β transfectant cells and a fixed amount of tracer ^125 I-labeled M4TS.11. The sample tubes were processed as in the blocking experiment described. […] The binding affinities calculated from the data were: Ka =5×10^8 M^-1 for the muAb and 3×10^7 M^-1 for the HuAb.

[2] = tested on: CHO transfectant cell line expressing PDGF-R β (CHO C4); assay: Inhibition of PDGF BB-induced proliferation (3H-thymidine) of CHO C4 cells; format: cell-based, Chinese hamster
Protocol: To determine the ability of muM4TS.11 and muM4TS.22 to block PDGF-mediated proliferation, a CHO transfectant cell line expressing PDGF-R β (CHO C4) was generated, as described above. Proliferation of this line, as measured by incorporation of ^3 H-thymidine by DNA synthesis, is stimulated several-fold by PDGF BB. The CHO PDGF-R β transfectants were plated in a 96-well tissue culture plate at about 50,000 cells/well in Ham's F-12+10% FCS and incubated for 1-2 days. The medium was removed, and the cells were washed once with serum-free medium (Ham's F-12+1 mg/ml BSA) and incubated in this media for 1-2 days to put them in a quiescent state. The appropriate amount of antibody in serum-free medium was added, and after 1-3 hours, 50 ng/ml PDGF BB was added. After overnight incubation, 1 μCi ^3 H-thymidine was added, and after a final 4 hour incubation, the cells were harvested using a PHD cell harvester (Cambridge Technology) and analyzed with a scintillation counter.

[3] = tested on: human primary fibroblast cell line AG1523B; assay: Inhibition of PDGF BB-stimulated proliferation of AG1523B fibroblasts; format: cell-based; conditions: 300 ng/ml PDGF BB
[4] = tested on: Rat aortic smooth muscle cells (SMC); assay: Inhibition of PDGF BB-mediated proliferation of rat aortic smooth muscle cells; format: cell-based; conditions: PDGF BB 10 ng/ml, 3H-thymidine 19 to 26 hr
Protocol: To determine whether muM4TS.11 inhibits PDGF-mediated proliferation of rat cells in vitro, the following experiment was performed. Rat aortic smooth muscle cells (SMC) were plated at a 1:3 split ratio in 10% FCS and made quiescent 24 hours later by changing the medium to 1% control process serum replacement II (Sigma, St. Louis, Mo.). Three to five days later, the cells were stimulated with PDGF BB (10 ng/ml). At the time of stimulation, increasing doses of the specific MAb or mouse IgG (control) were added. Cell proliferation was determined by measuring ^3 H-thymidine incorporated into DNA when the cells were pulsed from 19 to 26 hr after stimulation. MuM4TS.11 inhibited proliferation in a concentration-dependent manner with an IC50 of about 0.5 μg/ml.

[5] = tested on: intima of left common carotid artery after balloon injury; assay: Rat carotid balloon injury model, intimal thickening; format: in vivo; conditions: 21 days after injury
Source text: To perform the vascular injury, under sterile conditions and after general anesthesia the left common carotid arteries of S-D rats were exposed. Anesthesia was induced with ketamine and xilaxine by IP injection. Additional anesthesia was given at half a dose every forty-five minutes. Through a midline neck incision the left common, external and internal carotid arteries were exposed. A 2F Fogarty balloon catheter was introduced in the left external carotid artery. The balloon was inflated sufficiently to generate slight resistance and withdrawn 3 times to consistently produce endothelial denudation of the entire length of the left common carotid artery (LCCA), thus simulating vascular injury after balloon angioplasty in human patients. Upon removal of the catheter, the left external carotid artery was ligated with 3.0 silk. The skin was closed with surgical wound clips. […]
For measurement of intimal thickening, the left common carotid arteries were sectioned every 3 mm, from the proximal to the distal end. […] Cross-sectional areas for lumen, intima and media of the artery were determined as a mean of the 3 segments with the greatest intimal thickness. […] Differences between placebo or control groups and treated groups were analyzed for statistical significance by analysis of variance and a two-tailed, unpaired Student's t test […]

B1: muM4TS.11: murine monoclonal antibody to PDGF-R β, variable regions SEQ ID NOS:10 and 12; epitope in fourth extracellular domain (antibody, V domains shown)
VL: METETLLLWVLLLWVPGSTGDIVLTQSPPSLAVSLGQRATISCRASESVDSYGNSFMHWYQQKPGQPPKLLIYRASNLESGIPARFSGGGSRTDFTLTINPVEADDVATYYCQQSNEDPPTFGGGTKLEIK
VH: MERHWIFLFLFSVTAGVHSQVQLQQSGAEVAKPGASVKMSCKASGYTFTNCWMHWVKQRPGQGLEWIGYINPTTGYSEYNQNFKDKATLTADKSSNTAYIQLSSLTSEDSAVYYCTSNYGHYDWFANWGQGTLVT
specific binding to membrane PDGF-R β by flow cytometry [1]: specifically bound to CHO PDGF-R β transfectant cells but not to untransfected CHO cells
binding affinity Ka (PDGF-R β): 5e+08 M⁻¹
inhibition of PDGF-mediated proliferation compared with another antibody [2]: about two times more effectively than with HuM4TS.11
inhibition of PDGF BB-induced proliferation ([2]; 50 ng/ml PDGF BB, sufficient antibody concentration): completely inhibited proliferation of the cells induced by PDGF BB; also recorded: almost completely inhibited the stimulation of proliferation by PDGF BB
inhibition of stimulation of proliferation by PDGF BB [3]: effectively inhibited the stimulation of proliferation by PDGF BB
IC50 of inhibition of proliferation [4]: about 0.5 μg/ml
less thickening of the artery intima than placebo or control groups ([5]; high dose: 4 mg bolus, then 2 mg IV every 24 hr for 4 days): approximately 60%
less thickening of the artery intima than placebo or control groups ([5]; low dose: 10% of the high-dose regimen): approximately 40%
